Measured values reported in publication PMC9385276.
Read-outs that look alike come from different tables or passages of the source.

Columns and labels:
PDGF-BB [1] = biological target: T1, PDGF-BB (human, UniProt P01127 82-190); test: ELISA
PDGF-BB [2] = biological target: T1, PDGF-BB; test: ELISA; remark: listed apart in the source

T1 sequence (P01127 82-190): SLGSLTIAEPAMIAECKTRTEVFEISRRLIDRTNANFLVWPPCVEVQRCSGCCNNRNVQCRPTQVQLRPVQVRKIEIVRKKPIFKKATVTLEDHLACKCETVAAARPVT

B1: Aa11 (structured_DNA)
DNA: CAGGCTACGGCACGTAGAGCATCACCATGATCCTGAAAAAATAATACGACTCACTATAGGGCCGTAGCCTG
binding result (PDGF-BB [1]): binds

B2: Aa10 (structured_DNA)
DNA: CAGGCTACGGCACGTAGAGCATCACCATGATCCTGAAAAAATAATACGACTCACTATAGGGTCCGTAGCCTG
binding result (PDGF-BB [2]): binds
